# Assay results taken from patent US6852686B2, “Methods for ameliorating icthyosiform skin diseases” (The United States of America as represented by the …, priority 1999, dated 2005).
# Like-named read-outs stand apart in the source and are kept apart here.
# T1: TGase 1 (Homo sapiens, UniProt P22735)
# T1 construct: Recombinant full-length human TGase 1 and TGase 3 enzymes were expressed in Sf9 cells by the BaculoGold system; made in house; host or cells: Sf9 insect cells, BaculoGold baculovirus system, pVL1392 vector
# T1 sequence (P22735 1-817): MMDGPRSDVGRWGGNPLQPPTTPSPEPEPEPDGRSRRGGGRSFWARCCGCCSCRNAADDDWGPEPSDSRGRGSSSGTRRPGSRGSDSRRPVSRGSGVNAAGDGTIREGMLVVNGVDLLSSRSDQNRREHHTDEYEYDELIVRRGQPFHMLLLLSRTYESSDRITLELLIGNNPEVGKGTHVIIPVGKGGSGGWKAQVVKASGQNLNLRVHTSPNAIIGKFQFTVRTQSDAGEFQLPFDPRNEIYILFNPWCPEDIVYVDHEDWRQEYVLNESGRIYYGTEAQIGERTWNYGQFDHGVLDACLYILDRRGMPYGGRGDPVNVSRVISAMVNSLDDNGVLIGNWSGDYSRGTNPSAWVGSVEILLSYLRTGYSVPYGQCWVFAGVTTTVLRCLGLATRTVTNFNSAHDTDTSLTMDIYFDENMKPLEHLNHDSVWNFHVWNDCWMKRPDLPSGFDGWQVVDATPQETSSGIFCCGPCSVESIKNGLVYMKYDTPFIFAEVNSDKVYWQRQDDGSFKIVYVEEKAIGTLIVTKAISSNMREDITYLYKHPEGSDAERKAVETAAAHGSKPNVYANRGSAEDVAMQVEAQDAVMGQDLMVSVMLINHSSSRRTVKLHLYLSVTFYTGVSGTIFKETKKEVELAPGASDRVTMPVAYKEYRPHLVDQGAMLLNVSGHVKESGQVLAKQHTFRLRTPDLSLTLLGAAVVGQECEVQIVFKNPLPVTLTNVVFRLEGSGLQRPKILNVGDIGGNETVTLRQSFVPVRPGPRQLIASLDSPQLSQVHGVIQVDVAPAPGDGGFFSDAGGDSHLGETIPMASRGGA
# B1: Involucrin: recombinant purified human involucrin expressed in E. coli (protein)
# chain: MSQQHTLPVTLSPALSQELLKTVPPPVNTHQEQMKQPTPLPPPCQKVPVELPVEVPSKQEEKHMTAVKGLPEQECEQQQKEPQEQELQQQHWEQHEEYQKAENPEQQLKQEKTQRDQQLNKQLEEEKKLLDQQLDQELVKRDEQLGMKKEQLLELPEQQEGHLKHLEQQEGQLKHPEQQEGQLELPEQQEGQLELPEQQEGQLELPEQQEGQLELPEQQEGQLELPEQQEGQLELPQQQEGQLELSEQQEGQLELSEQQEGQLKHLEHQEGQLEVPEEQMGQLKYLEQQEGQLKHLDQQEKQPELPEQQMGQLKHLEQQEGQPKHLEQQEGQLEQLEEQEGQLKHLEQQEGQLEHLEHQEGQLGLPEQQVLQLKQLEKQQGQPKHLEEEEGQLKHLVQQEGQLKHLVQQEGQLEQQERQVEHLEQQVGQLKHLEEQEGQLKHLEQQQGQLEVPEQQVGQPKNLEQEEKQLELPEQQEGQVKHLEKQEAQLELPEQQVGQPKHLEQQEKHLEHPEQQDGQLKHLEQQEGQLKDLEQQKGQLEQPVFAPAPGQVQDIQPALPTKGEVLLPVEHQQQKQEVQWPPKHK
# B2: TGase 1: recombinant full-length human transglutaminase 1 expressed in Sf9 cells by baculovirus, solubilized or bound to SLV (protein)
# chain: T1 sequence (P22735 1-817)
# How the values were obtained:
# [1] = biological target: T1, TGase 1; experiment: 14C-putrescine labeling of involucrin Gln residues by TGase 1; type: biochemical
# Experimental: This was set far below saturating amounts on SLV in order to ensure that all enzyme was bound to the SLV.
# After 4 h incubation at 37° C., the reactions were stopped by addition of EDTA to 10 mM and 100 μl 20% SDS, and vortexed. This mixture was precipitated and washed three times with acetone-triethylamine-acetic acid (90:5:5) (Konigsberg, W. H. and L. Henderson, Meth. Enzymol., 91: […] (1983), herein expressly incorporated by reference in its entirety) to remove the SDS and the lipids. After repeated washings with acetone, the pellet was redissolved in a buffer of 50 mM Tris-Cl (pH 7.5), and digested for 16 h at 37° C. with 2% (by weight) of modified trypsin (Boehringer Mannheim, Indianapolis, Ind.). Aliquots of 20 μg were resolved on a 250×4.6 mm Beckman Ultrasphere C18 HPLC column. Separated peaks were analyzed for radioactivity and peaks containing activity were attached to a solid support for sequencing as before (Steinert, P. M. and L. N. Marekov, J. Biol. Chem., 270: 17702-17711 (1995), herein expressly incorporated by reference in its entirety). As the peptide number 40 eluted by 50% acetonitrile (see FIG. 9) was too long for direct sequencing, it was subjected to limited proteolysis by dispase and was sequenced from four peptides isolated by HPLC chromatography as above. […]
# [2] = biological target: T1, TGase 1; experiment: Kinetic parameters of 14C-putrescine incorporation by TGase 1; type: biochemical; settings: for Km: KM pertains to the protein substrate, read-out: KM(app); for Vmax / kcat(putrescine): putrescine incorporation, 37° C.
# Description: One possibility is that this KM increase is due to the reduced diffusional mobility of the enzyme after attachment to the SLV. […] (Table 1). One reason for this is that a reduced access to many of the Gln residues occurs after anchorage of the enzyme. On the other hand, the Vmax value for the recombinant SPR2 substrate was almost unchanged.
# The reaction rates were quantified by measuring the incorporated radioactivity as before (Thomas, M. V., Cellular Calcium, McCormack, et al., eds., pp. 115-123 (1991), herein expressly incorporated by reference in its entirety). Kinetic constants were obtained using the curve-fitting and regression analysis Sigmaplot 4.0 software. All data points represent the means of three measurements, each performed in triplicate.
# [3] = tested on: synthetic lipid vesicles (SLV); experiment: Membrane association (binding) to synthetic lipid vesicles, SLV pelleted by ultracentrifugation
# Experimental: Mixtures of dipalmitoyl-phosphatidylcholine, cholesterol, dipalmitoyl-phosphatidylserine (PS) and other lipids where indicated (all from Sigma, St. Louis, Mo.) were made in chloroform-methanol (95:5). In all cases, the mixtures contained 30% cholesterol. When the amounts of PS or other individual components were varied, phosphatidylcholine was added to make the mixture to 100%. Mixtures were made in 0.5 ml and contained 10 μmol of total lipids. The solvent was flushed away under a stream of N2, dried further under high vacuum for 4 h and then resuspended by vortexing in 0.5 ml of a buffer containing 50 mM Tris-Cl (pH 8.0), 100 mM NaCl, 3 mM NaN3, 5 mM DTT, and 200 mM sucrose. The mixture was sonicated on ice five times each for 1 min using a Branson 250 sonifier with micro probe tip, and allowed to stand at 23° C. to facilitate assembly of SLV. After 1 h the SLV were diluted with 0.5 ml of the above buffer without sucrose, and 200 μl aliquots were centrifuged at 100,000× g for 30 min in a Beckman Airfuge using the A-10 rotor. The top 175 μl was removed, and the pellet resuspended in another 150 μl of sucrose-free buffer. The final stock concentration was 11 μmol/ml.
# In all cases, the buffer contained 50 mM Tris-HCl (pH 8.0), 100 mM NaCl, 1 mM DTT, 3 mM NaN3, and other additives where noted. Some mixtures also contained 1 mM CaCl2 or 2 mM EDTA. After mixing, the samples were centrifuged for 45 min at 100,000× g, and the protein content from 50 μl of supernatant was determined by amino acid analysis after acid hydrolysis. Data were usually not corrected for loss of SLV lipids, as in control experiments, cumulated losses were <4% as assayed by ^14C-phosphatidylcholine tracer, and thus neglected from the calculations.
# (§1) The Ca^++ concentrations in the μM range were set by buffering free Ca^++ with chelators The desired Ca^++/chelator ratios were calculated by the WinMaxC 1.7 computer program (Bers, et al., Methods in Cell Biology Vol 40: A Practical Guide to the Study of Ca^2+ in Living Cells, Nuccitelli, R., ed., pp. 1-327 (1994), herein expressly incorporated by reference in its entirety), and were made by adding the required amounts of 1 M CaCl2 to 0.2 M stock solutions of the following chelators at pH 8.0. Final chelator concentrations in the samples were 10 mM in all cases. Sodium citrate was the chelator for the 20-500 μM Ca^++ range; sodium nitrilotriacetate for the 1-20 μM Ca^++ range; and sodium 1,2-bis(aminophenoxy)ethane-N,N,N′,N′ tetraacetate for the 0.1-1 μM Ca^++ range.
# [4] = biological target: T1, TGase 1; experiment: Free Ca++ dependence of 14C-putrescine incorporation by TGase 1; type: biochemical
# Experimental: Activity values are given as percent of the values measured at 1 mM Ca^++. […] Points represent the means±s.d. of three independent measurements.
# The optimal Ca^++ ion concentration required for the TGase 1 reaction has not been measured for any substrate. Standard in vitro solution assays contain 1-5 mM Ca^++. (Folk, J. E. and J. S. Finlayson, Adv. Protein Chem., 31: 1-133 (1977); Folk, J. E., Adv. Enzymol. Related Areas Mol. Biol., 54: 1-56 (1983); and Lorand, L. S. M. Conrad, Mol. Cell Biochem., 58: 9-35 (1984)). […] (FIG. 6, open symbols). […] (FIG. 2).
# as §1
# [5] = SLV containing 15% PS compared to solubilized TGase 1 and soluble involucrin
molecule,measurement,setting,value
B1,putrescine incorporated,[1]; membrane-bound TGase 1 (Sf9 particulate membranes or SLV with 15% PS),approximately 1 mol of putrescine/mol of invol
same,putrescine incorporated,"[1]; solubilized recombinant TGase 1, no membranes or SLV, 20 mM putrescine, 4 h, 37° C.",about 20 mol of putrescine incorporated/mol of involucrin
same,decrease of KM,[2]; [5],approximately 40 fold
same,decrease of kcat value,[2]; [5],200 fold
same,kinetic parameters as a substrate,[2]; SLV formulated in the absence of PS,immeasurably low
same,Km,[2]; SLV-bound TGase 1 (15% PS),2.9 ± 0.4 µM
same,Vmax,[2]; SLV-bound TGase 1 (15% PS),2.4 ± 0.4 pmol/min
same,kcat(putrescine),[2]; SLV-bound TGase 1 (15% PS),0.0425 s⁻¹
same,Vmax,"[2]; Solubilized TGase 1, 0.94 pmol",482 ± 37 pmol/min
same,kcat(putrescine),"[2]; Solubilized TGase 1, 0.94 pmol",8.55 s⁻¹
same,Km,[2]; Solubilized TGase 1,114 ± 19 µM
same,Ca++ concentration above which binding to SLV occurs,[3]; SLV containing 12-18% phosphatidylserine,above 1 μM
same,amount saturating SLV,[3]; SLVs containing 15-30% PS,0.43±0.02 nmol involucrin/μmol lipid
same,free Ca++ concentration at which binding to SLVs was first detected,[3]; SLVs containing 15 mol % PS,1 :M
same,free Ca++ concentration for maximal binding to SLVs,"[3]; SLVs containing 15 mol % PS, saturating involucrin",> 20 µM
B2,saturating amount on SLV,[3]; SLV composed of 15% PS,approximately 0.9 nmol of TGase 1/μmol of lipid
same,binding to SLVs,[3]; TGase 1 purified by the NH2OH—HCl method (S-acyl adducts hydrolysed),unable to bind to SLVs
same,binding to SLVs,[3]; TGase 1 purified from Triton X-100 extracts (lipid adducts retained),spontaneously associates with SLVs
same,Ca++ concentration above which enzyme becomes active in cross-linking,[4]; TGase 1 bound to SLV,above 10 μM
same,lowering of Ca++ concentration required for cross-linking of involucrin versus soluble enzyme and substrate,[4]; membrane-bound versus soluble TGase 1,10 fold
same,Ca++ concentration above which enzyme becomes active in cross-linking,[4]; solution assays,above 100 μM
